Data as given in the MegaScale stability set (Tsuboyama et al. 2023).

B1: EHEE_rd2_0191 (parent)
chain: TTEYTFTDDEEARRAIEELKKRGLTFRYEKHGTTWRVRVD

Variants of: B1
Test: folding stability dG (cDNA display proteolysis); higher = more stable
Conditions: PBS, room temperature

Row | Variant | folding stability dG [kcal/mol]
1 | TTEYTFTDDEEARRAIEELKKRGLTFRYEKSGTTWRVRVD | 2.1
2 | TTEYTFTDDEEARRAIEELKKRGLTFRYEKFGTTWRVRVD | 2.15
3 | TTEYTFTDDEEARRAIEELKKRGLTFRYEKEGTTWRVRVD | 2.24
4 | TTEYTFTDDEEARRAIEELKKRGLTFRYEKVGTTWRVRVD | 2.56
5 | TTEYTFTDDEEARRAIEELKKRGLTFRYEKYGTTWRVRVD | 2.04
6 | TTEYTFTDDEEARRAIEELKKRGLTFRYEKQGTTWRVRVD | 2.21
7 | TTEYTFTDDEEARRAIEELKKRGLTFRYEKAGTTWRVRVD | 1.75
8 | TTEYTFTDDEEARRAIEELKKRGLTFRYEKKGTTWRVRVD | 2.06
9 | TTEYTFTDDEEARRAIEELKKRGLTFRYEKDGTTWRVRVD | 2.39
10 | TTEYTFTDDEEARRAIEELKKRGLTFRYEKIGTTWRVRVD | 2.81
11 | TTEYTFTDDEEARRAIEELKKRGLTFRYEKLGTTWRVRVD | 2.29
12 | TTEYTFTDDEEARRAIEELKKRGLTFRYEKRGTTWRVRVD | 1.99
13 | TTEYTFTDDEEARRAIEELKKRGLTFRYEKNGTTWRVRVD | 2.21
14 | TTEYTFTDDEEARRAIEELKKRGLTFRYEKTGTTWRVRVD | 2.29
15 | TTEYTFTDDEEARRAIEELKKRGLTFRYEKMGTTWRVRVD | 2.18
16 | TTEYTFTDDEEARRAIEELKKRGLTFRYEKGGTTWRVRVD | 0.625
17 | TTEYTFTDDEEARRAIEELKKRGLTFRYEKWGTTWRVRVD | 1.89
18 | TTEYTFTDDEEARRAIEELKKRGLTFRYGKHGTTWRVRVD | 1.04
19 | TTEYTFTDDEEARRAIEELKKRGLTFRYRKHGTTWRVRVD | 1.77
20 | TTEYTFTDDEEARRAIEELKKRGLTFRYKKHGTTWRVRVD | 1.72
21 | TTEYTFTDDEEARRAIEELKKRGLTFRYLKHGTTWRVRVD | 1.71
22 | TTEYTFTDDEEARRAIEELKKRGLTFRYSKHGTTWRVRVD | 2.12
23 | TTEYTFTDDEEARRAIEELKKRGLTFRYHKHGTTWRVRVD | 1.83
24 | TTEYTFTDDEEARRAIEELKKRGLTFRYVKHGTTWRVRVD | 2.07
25 | TTEYTFTDDEEARRAIEELKKRGLTFRYNKHGTTWRVRVD | 1.38

Row | Variant | folding stability dG [kcal/mol]
26 | TTEYTFTDDEEARRAIEELKKRGLTFRYAKHGTTWRVRVD | 1.75
27 | TTEYTFTDDEEARRAIEELKKRGLTFRYQKHGTTWRVRVD | 1.75
28 | TTEYTFTDDEEARRAIEELKKRGLTFRYIKHGTTWRVRVD | 2.13
29 | TTEYTFTDDEEARRAIEELKKRGLTFRYYKHGTTWRVRVD | 2.44
30 | TTEYTFTDDEEARRAIEELKKRGLTFRYWKHGTTWRVRVD | 3.04
31 | TTEYTFTDDEEARRAIEELKKRGLTFRYFKHGTTWRVRVD | 2.35
32 | TTEYTFTDDEEARRAIEELKKRGLTFRYCKHGTTWRVRVD | 2.56
33 | TTEYTFTDDEEARRAIEELKKRGLTFRYMKHGTTWRVRVD | 1.94
34 | TTEYTFTDDEEARRAIEELKKRGLTFRYDKHGTTWRVRVD | 1.7
35 | TTEYTFTDDEEARRAIEELKKRGLTFRYTKHGTTWRVRVD | 2.21
36 | TTEYTFTDDEEARRAIEELKKRGLTFRYENHGTTWRVRVD | 0.931
37 | TTEYTFTDDEEARRAIEELKKRGLTFRYELHGTTWRVRVD | 1.54
38 | TTEYTFTDDEEARRAIEELKKRGLTFRYEQHGTTWRVRVD | 1.54
39 | TTEYTFTDDEEARRAIEELKKRGLTFRYEWHGTTWRVRVD | 0.819
40 | TTEYTFTDDEEARRAIEELKKRGLTFRYETHGTTWRVRVD | 0.892
41 | TTEYTFTDDEEARRAIEELKKRGLTFRYEHHGTTWRVRVD | 1.51
42 | TTEYTFTDDEEARRAIEELKKRGLTFRYEAHGTTWRVRVD | 0.56
43 | TTEYTFTDDEEARRAIEELKKRGLTFRYERHGTTWRVRVD | 1.99
44 | TTEYTFTDDEEARRAIEELKKRGLTFRYEVHGTTWRVRVD | 1.82
45 | TTEYTFTDDEEARRAIEELKKRGLTFRYEEHGTTWRVRVD | -0.015
46 | TTEYTFTDDEEARRAIEELKKRGLTFRYEYHGTTWRVRVD | 1.21
47 | TTEYTFTDDEEARRAIEELKKRGLTFRYEIHGTTWRVRVD | 1.86
48 | TTEYTFTDDEEARRAIEELKKRGLTFRYESHGTTWRVRVD | 0.569
49 | TTEYTFTDDEEARRAIEELKKRGLTFRYEFHGTTWRVRVD | 1.22
50 | TTEYTFTDDEEARRAIEELKKRGLTFRYEMHGTTWRVRVD | 1.43

Row | Variant | folding stability dG [kcal/mol]
51 | TTEYTFTDDEEARRAIEELKKRGLTFRYEKHRTTWRVRVD | 0.119
52 | TTEYTFTDDEEARRAIEELKKRGLTFRYEKHVTTWRVRVD | -0.186
53 | TTEYTFTDDEEARRAIEELKKRGLTFRYEKHMTTWRVRVD | 0.592
54 | TTEYTFTDDEEARRAIEELKKRGLTFRYEKHITTWRVRVD | -0.154
55 | TTEYTFTDDEEARRAIEELKKRGLTFRYEKHSTTWRVRVD | 0.389
56 | TTEYTFTDDEEARRAIEELKKRGLTFRYEKHQTTWRVRVD | 0.889
57 | TTEYTFTDDEEARRAIEELKKRGLTFRYEKHNTTWRVRVD | 1.1
58 | TTEYTFTDDEEARRAIEELKKRGLTFRYEKHATTWRVRVD | 0.777
59 | TTEYTFTDDEEARRAIEELKKRGLTFRYEKHWTTWRVRVD | -0.3
60 | TTEYTFTDDEEARRAIEELKKRGLTFRYEKHETTWRVRVD | 1.35
61 | TTEYTFTDDEEARRAIEELKKRGLTFRYEKHKTTWRVRVD | 0.641
62 | TTEYTFTDDEEARRAIEELKKRGLTFRYEKHYTTWRVRVD | 0.194
63 | TTEYTFTDDEEARRAIEELKKRGLTFRYEKHLTTWRVRVD | 0.796
64 | TTEYTFTDDEEARRAIEELKKRGLTFRYEKHHTTWRVRVD | 0.696
65 | TTEYTFTDDEEARRAIEELKKRGLTFRYEKHTTTWRVRVD | -0.068
66 | TTEYTFTDDEEARRAIEELKKRGLTFRYEKHFTTWRVRVD | 0.367
67 | TTEYTFTDDEEARRAIEELKKRGLTFRYEKHDTTWRVRVD | 1.34
68 | TTEYTFTDDEEARRAIEELKKRGLTFNYEKHGTTWRVRVD | 1.91
69 | TTEYTFTDDEEARRAIEELKKRGLTFSYEKHGTTWRVRVD | 2.73
70 | TTEYTFTDDEEARRAIEELKKRGLTFMYEKHGTTWRVRVD | 2.03
71 | TTEYTFTDDEEARRAIEELKKRGLTFYYEKHGTTWRVRVD | 2.42
72 | TTEYTFTDDEEARRAIEELKKRGLTFWYEKHGTTWRVRVD | 2.77
73 | TTEYTFTDDEEARRAIEELKKRGLTFVYEKHGTTWRVRVD | 2.51
74 | TTEYTFTDDEEARRAIEELKKRGLTFQYEKHGTTWRVRVD | 2.25
75 | TTEYTFTDDEEARRAIEELKKRGLTFTYEKHGTTWRVRVD | 3.02

Row | Variant | folding stability dG [kcal/mol]
76 | TTEYTFTDDEEARRAIEELKKRGLTFRVEKHGTTWRVRVD | 3.23
77 | TTEYTFTDDEEARRAIEELKKRGLTFRMEKHGTTWRVRVD | 1.86
78 | TTEYTFTDDEEARRAIEELKKRGLTFRQEKHGTTWRVRVD | 0.764
79 | TTEYTFTDDEEARRAIEELKKRGLTFRREKHGTTWRVRVD | -0.634
80 | TTEYTFTDDEEARRAIEELKKRGLTFRTEKHGTTWRVRVD | 1.78
81 | TTEYTFTDDEEARRAIEELKKRGLTFRIEKHGTTWRVRVD | 2.95
82 | TTEYTFTDDEEARRAIEELKKRGLTFRHEKHGTTWRVRVD | 0.592
83 | TTEYTFTDDEEARRAIEELKKRGLTFRAEKHGTTWRVRVD | 2.4
84 | TTEYTFTDDEEARRAIEELKKRGLTFRGEKHGTTWRVRVD | 0.032
85 | TTEYTFTDDEEARRAIEELKKRGLTFRDEKHGTTWRVRVD | -0.987
86 | TTEYTFTDDEEARRAIEELKKRGLTFRSEKHGTTWRVRVD | 1.34
87 | TTEYTFTDDEEARRAIEELKKRGLTFRKEKHGTTWRVRVD | 0.466
88 | TTEYTFTDDEEARRAIEELKKRGLTFRFEKHGTTWRVRVD | 2.06
89 | TTEYTFTDDEEARRAIEELKKRGLTFREEKHGTTWRVRVD | 0.447
90 | TTEYTFTDDEEARRAIEELKKRGLTFRWEKHGTTWRVRVD | 2.2
91 | TTEYTFTDDEEARRAIEELKKRGLTFRCEKHGTTWRVRVD | 2.52
92 | TTEYTFTDDEEARRAIEELKKRGLTFRLEKHGTTWRVRVD | 2.15
93 | TTEYTFTDDEEARRAIEELKKRGLTFRYEKHGTEWRVRVD | 2.07
94 | TTEYTFTDDEEARRAIEELKKRGLTFRYEKHGTIWRVRVD | 2.48
95 | TTEYTFTDDEEARRAIEELKKRGLTFRYEKHGTCWRVRVD | 2.51
96 | TTEYTFTDDEEARRAIEELKKRGLTFRYEKHGTAWRVRVD | 1.48
97 | TTEYTFTDDEEARRAIEELKKRGLTFRYEKHGTGWRVRVD | 1.56
98 | TTEYTFTDDEEARRAIEELKKRGLTFRYEKHGTKWRVRVD | 1.48
99 | TTEYTFTDDEEARRAIEELKKRGLTFRYEKHGTQWRVRVD | 1.78
100 | TTEYTFTDDEEARRAIEELKKRGLTFRYEKHGTSWRVRVD | 1.53

Row | Variant | folding stability dG [kcal/mol]
101 | TTEYTFTDDEEARRAIEELKKRGLTFRYEKHGTRWRVRVD | 1.54
102 | TTEYTFTDDEEARRAIEELKKRGLTFRYEKHGTLWRVRVD | 2.33
103 | TTEYTFTDDEEARRAIEELKKRGLTFRYEKHGTHWRVRVD | 1.74
104 | TTEYTFTDDEEARRAIEELKKRGLTFRYEKHGTFWRVRVD | 2.15
105 | TTEYTFTDDEEARRAIEELKKRGLTFRYEKHGTNWRVRVD | 1.48
106 | TTEYTFTDDEEARRAIEELKKRGLTFRYEKHGTDWRVRVD | 1.03
107 | TTEYTFTDDEEARRAIEELKKRGLTFRYEKHGTMWRVRVD | 2.08
108 | TTEYTFTDDEEARRAIEELKKRGLTFRYEKHGSTWRVRVD | 2.19
109 | TTEYTFTDDEEARRAIEELKKRGLTFRYEKHGVTWRVRVD | 1.71
110 | TTEYTFTDDEEARRAIEELKKRGLTFRYEKHGKTWRVRVD | 2.01
111 | TTEYTFTDDEEARRAIEELKKRGLTFRYEKHGETWRVRVD | 2.14
112 | TTEYTFTDDEEARRAIEELKKRGLTFRYEKHGATWRVRVD | 1.93
113 | TTEYTFTDDEEARRAIEELKKRGLTFRYEKHGLTWRVRVD | 1.91
114 | TTEYTFTDDEEARRAIEELKKRGLTFRYEKHGHTWRVRVD | 2.01
115 | TTEYTFTDDEEARRAIEELKKRGLTFRYEKHGRTWRVRVD | 1.8
116 | TTEYTFTDDEEARRAIEELKKRGLTFRYEKHGWTWRVRVD | 1.13
117 | TTEYTFTDDEEARRAIEELKKRGLTFRYEKHGFTWRVRVD | 1.9
118 | TTEYTFTDDEEARRAIEELKKRGLTFRYEKHGDTWRVRVD | 2.54
119 | TTEYTFTDDEEARRAIEELKKRGLTFRYEKHGMTWRVRVD | 1.9
120 | TTEYTFTDDEEARRAIEELKKRGLTFRYEKHGQTWRVRVD | 2.03
121 | TTEYTFTDDEEARRAIEELKKRGLTFRYEKHGITWRVRVD | 1.84
122 | TTEYTFTDDEEARRAIEELKKRGLTFRYEKHGYTWRVRVD | 1.7
123 | TTEYTFTDDEEARRAIEELKKRGLTFRYEKHGPTWRVRVD | 1.79
124 | TTEYTFTDDEEARRAIEELKKRGLTFRYEKHGNTWRVRVD | 2.55
125 | TTEYTFTDDEEARRAIEELKKRGLTFRYEKHGGTWRVRVD | 2.46
